# Measured values taken from paper PMC8666670, “Malonyl-acyl carrier protein decarboxylase activity promotes fatty acid and cell envelope biosynthesis in Proteobacteria” (The Journal of Biological Chemistry, 2021).
# Legend:
# [1] = target: MadB(H47A) (S. oneidensis); test: not stated; dimeric structures of the MadB catalytic loop mutants, data in Table S3
# [2] = target: MadB(N45A) (S. oneidensis); test: as above
# [3] = target: MadB, standalone hot dog malonyl-ACP decarboxylase of Shewanella oneidensis (S. oneidensis); test: SEC; gel filtration chromatography of the purified recombinant protein
# [4] = target: MadB, standalone hot dog malonyl-ACP decarboxylase of Shewanella oneidensis (S. oneidensis); test: AUC; sedimentation analysis (methods: sedimentation velocity, 50,000 rpm, interference optics), 0.02 M Tris pH 7.5, 0.5 M NaCl, 20 °C, no reducing agents
# [5] = target: MadB(S54A) (S. oneidensis); test: not stated; dimeric structures of the MadB catalytic loop mutants, data in Table S3
# [6] = target: MadB(N43A) (S. oneidensis); test: as above
# [7] = target: MadB(D79A) (S. oneidensis); test: as above
# [8] = target: MadB(T49A) (S. oneidensis); test: as above
substance,measurement,setting,value
MadB(H47A) (enzyme),stoichiometry N,[1],2
MadB(N45A) (enzyme),stoichiometry N,[2],2
"MadB, standalone hot dog malonyl-ACP decarboxylase of Shewanella oneidensis (enzyme)",stoichiometry N,[3],2
same,stoichiometry N,[4],2
MadB(S54A) (enzyme),stoichiometry N,[5],2
MadB(N43A) (enzyme),stoichiometry N,[6],2
MadB(D79A) (enzyme),stoichiometry N,[7],2
MadB(T49A) (enzyme),stoichiometry N,[8],2
